Among the data in US20150197559A1 are Kd and fold higher affinity than the scFv values, retold here.

Experiment [1] has as its target BoNT/B2 (Clostridium botulinum). The experiment in a line: flow cytometry, yeast-displayed scFv, soluble toxin.
Experiment [2] has the same target. The experiment can be described thus: KinExA flow fluorimetry, IgG in solution.
The target in experiment [3] is BoNT/B3 (Clostridium botulinum). The experiment in a line: KinExA flow fluorimetry, IgG in solution. (In general: A kinetic exclusion assay measures how much of one partner remains free in solution.)
Experiment [4] has as its target BoNT/B4 (Clostridium botulinum). The experiment in a line: KinExA flow fluorimetry, IgG in solution.
In experiment [5] the target is BoNT/B2 (Clostridium botulinum). The experiment can be described thus: flow cytometry, yeast-displayed Fab, soluble toxin.
For experiment [6] the target is unchanged. The experiment in a line: flow cytometry, yeast-displayed Fab against yeast-displayed scFv.

B1: B11E8 scFv (scFv)
scFv: EVQLVQSGGGVVQPGRSLRLSCAASGFIFRTYGMHWVRQAPGKGLEWVAFVSSDGNNKFYSDSVKGRFTISRDNAKNTLYLQMNSLETEDTAMYYCAKDRYPIDCSGGSCFSYGMDVWGQGTTVTVSSGGGGSGGGGSGGGGSEIVLTQSPATLSVSPGERATLSCRASQSVSKFLAWYQQKRGQAPRLLIYGASTRATGIPARFSGSGSGTEFALTISSLQSEDFADYYCQQYDNWPITFGQGTRLEIK
Broadly, the Kd is the constant that tells how readily two partners part at equilibrium. A low value points to tighter binding. Turning to B1, in experiment [1], the Kd is 189 pM.

B2: 2B25.1 IgG (antibody, V domains shown)
VH: QVQLQESGPGLVKPSQTLSLSCSVSGASITSGTFYWSWIRQHPGKDLEWIGYIYYSGTTYYNPSLKSRVTLSVDTSKNQFSLKVTSLTAADTAVYHCARGVPIYDSSGTYRGTYFDYWGQGTLVTVSS
VL: ESVLTQPPSVSAAPGQKVTISCSGSSSNIGNNYVSWYQQLPGTAPKLLIYDNNRRPSGIPDRFSGSKSGTSATLGITGLQTGDEADYYCGTWDSSLSEVVFGGGTKVTVLG
In the case of B2, the dissociation constant Kd in experiment [2] was found to be 53.2 pM; in experiment [3] it was 17.7 pM; in experiment [4], 30 pM.

B3: 2B30 scFv (scFv)
scFv: EVQLVESGGGVVQPGRSLRLSCAASGFTFRRNAIHWVRQAPGKGLEWVAVISYDGVNKYYAASVKGRFAISRDNAKNTLFLQMNSLRPEDSAIYYCARDVSEYGDYVGHFDYWGQGTLVTVSSGGGGSGGGGSGGGGSSYELMQLPSASGTPGQRVSISCSGSSSNIGSNPVNWYQQLPGTAPKLLIYSNNHRPSGVPDRFSGSKSGTSASLAISGLQSEDEADYYCAAWDGSLNGHVVFGGGTKLTVL
As for B3, in experiment [1], the Kd is 190 pM.

B4: 1B22 IgG (antibody, V domains shown)
VH: QVQLQESGSRLVKPSQTLSLTCGVSGGSISSSSYSWSWIRQTPGKGLEWIGYIYHSGSTYYNPSLKSRVTMSVDKSRNQFSLNMSSVTAADTAVYYCARTAFYYENTGPIRCYLDFWGQGTLVTVSS
VL: DIQMTQSPSTLSASIGDRVTISCRASQSIQSWLAWYQQRPGEAPKLLIYSASTLQTGVPSRFSGSGSGTDFTLTISSLQPEDFATYYCQQYNSYPLTFGQGTKLEIK
On to B4, for which the Kd in experiment [2] was 319 pM; in experiment [3], 221 pM; in experiment [4], 129 pM.

B5: 1B10.1 IgG (antibody, V domains shown)
VH: QVQLVESGGGVVQPGRSLRLSCAASGFTFSHYGMHWVRQSPGKGLEWVAVIWYDGRNPYYAASVKGRFTISRDNDKNTLYLQMNSLRAEDTAVYYCVKDLTRFHDTTFGVFEMWGPGTTVTVSS
VL: EIVLTQSPSFVSASVGDRVTITCRASQGISSWLAWYQQKPGKAPKLLIYAASSLQSGVPSRFSGSGSGTEFTLTISSLQPDDFATYYCQQYSSLYTFGQGTKVDIKR
With B5, the equilibrium dissociation constant (Kd) in experiment [2] is 0.31 pM; in experiment [3] it was 1200 pM; in experiment [4], 0.47 pM.

B6: B6 scFv (scFv)
scFv: QVQLVQSGAEVKKPGESLVISCKASGDKDTFTSFWIAWVRQMPGKGLEWMGIIYAGDSDTRYSPSFQGHVNISVDRSTNTAYLQWSSLKASDTAMYYCARHDSRYKYFYFGMDVWGQGTTVTVSSGGGGSGGGGSGGGGSDVVMTQSPSSLSASVGDRITITCQAGQDISNFLNWYQQKPGKAPKLLIRDASNLETGVPSRFSGGGSGTHFTFTISSLHPEDIATYFCQQYDNLPYTFGQGTKLEIK
B6 returned a Kd in experiment [1] of 1770 pM.

B7: 2B23 IgG (antibody, V domains shown)
VH: EVQLLESGGGLVQPGGSLRLSCAASGFTFSNYPMSWVRQAPGKGLAWVSSLTASGDNTFYADSVKGRFTISRDNSNNTLYLQMHSLRAEDTAVYYCAKALVGRYDISTGYYRPVMDSWGQGTLVTVSS
VL: DIQMTQSPPSLSASVGDRVTITCRTSQGFTSALAWYQQKPGEPPKLLIYDASKLESGVPSRFSGSGSGTNFALTISSLQPEDFATYFCQQSNSYPLTFGGGTKVEIKR
As to B7, the Kd in experiment [2] came out at 45.3 pM; in experiment [3], 48 pM; in experiment [4] it was 55.2 pM.

B8: 1B18 IgG (antibody, V domains shown)
VH: EVQLVQSGGGLVQPGGSRRLSCAASGFYFNAYWMTWVRQAPGKGLEWVANINLDGTEIYYLDSVKGRFTVSRDNVKNSVFLQMSSLRVEDTAVYFCARLEWGGRNGWVSPWGQGTLVTVSS
VL: DVVMTQSPSSVSASVGDRVTITCRASQSISSYLNWYQQRPGKAPKLLIFAASSLQSAVPSRFSGSGSGTDFTLTISSLQPEDFATYYCQQSYSTPPTFGQGTKVEIKR
With B8, the Kd in experiment [2] turned out to be 817 pM; in experiment [3] it was 972 pM; in experiment [4] it was 21 pM.

B9: B11E8 Fab (Fab, V domains shown)
VH: EVQLVQSGGGVVQPGRSLRLSCAASGFIFRTYGMHWVRQAPGKGLEWVAFVSSDGNNKFYSDSVKGRFTISRDNAKNTLYLQMNSLETEDTAMYYCAKDRYPIDCSGGSCFSYGMDVWGQGTTVTVSS
VL: EIVLTQSPATLSVSPGERATLSCRASQSVSKFLAWYQQKRGQAPRLLIYGASTRATGIPARFSGSGSGTEFALTISSLQSEDFADYYCQQYDNWPITFGQGTRLEIKR
Molecule B9 gave a Kd in experiment [5] of 166 pM.

B10: B11 Fab (Fab, V domains shown)
VH: QVQLLQSAGGVVQPGRSLRLSCAASGFIFRTYGMHWVRQAPGKGLEWVAFVSSDGNNKFYSDSVKGRFTIPRDNAKNTLYLQMNSLETEDTAVYYCAKDRYPIDCSGGSCFSYGMDVWGQGTTVTVSS
VL: DIVMTQSPSTLSASVGDRVTVTCRASQSINSWLAWYQQKPGKAPKLLIYEASSLESGVPSRFSGSGSGTEFTLTISSLQPDDFATYYCQQYDSYWLTFGGGTKVEIKR
Turning to B10, the fold higher affinity than the scFv in experiment [6] is 1.46 fold.

B11: B11E8 IgG (antibody, V domains shown)
VH: EVQLVQSGGGVVQPGRSLRLSCAASGFIFRTYGMHWVRQAPGKGLEWVAFVSSDGNNKFYSDSVKGRFTISRDNAKNTLYLQMNSLETEDTAMYYCAKDRYPIDCSGGSCFSYGMDVWGQGTTVTVSS
VL: EIVLTQSPATLSVSPGERATLSCRASQSVSKFLAWYQQKRGQAPRLLIYGASTRATGIPARFSGSGSGTEFALTISSLQSEDFADYYCQQYDNWPITFGQGTRLEIKR
For B11, the Kd in experiment [2] amounted to 18.1 pM; in experiment [3], 15.6 pM.

B12: B12.1 IgG (antibody, V domains shown)
VH: QVNLRESGGGVVQPGRSLRLSCAASGFTFSSYALHWVRQTPGKGLEWVALISYDGSNKYYADSVKGRFTISRDNSKNMLYLQMNSLRAEDTAVYYCAKDRSHYGDYVGYLDYWGQGTLVTVSS
VL: AYVLTQPPSVSVAPGKTAAITCEGNNVGNKNVHWYQQRPGQAPVLVVHDDSDRPSGIPERFSGSNSGNTATLTINRVEAGDEADYYCQVWDSSSAQWVFGGGTKLTVLG
For B12, the Kd in experiment [2] is 16.2 pM; in experiment [3], 46.2 pM; in experiment [4] it was 625 pM.

B13: B11 scFv (scFv)
scFv: QVQLLQSAGGVVQPGRSLRLSCAASGFIFRTYGMHWVRQAPGKGLEWVAFVSSDGNNKFYSDSVKGRFTIPRDNAKNTLYLQMNSLETEDTAVYYCAKDRYPIDCSGGSCFSYGMDVWGQGTTVTVSSGGGGSGGGGSGGGGSDIVMTQSPSTLSASVGDRVTVTCRASQSINSWLAWYQQKPGKAPKLLIYEASSLESGVPSRFSGSGSGTEFTLTISSLQPDDFATYYCQQYDSYWLTFGGGTKVEIK
As for B13, in experiment [1], the equilibrium dissociation constant (Kd) turned out to be 2110 pM.
